Measured values as given in PMC7854685, “Histone Parylation factor 1 contributes to the inhibition of PARP1 by cancer drugs” (Nature Communications, 2021).

Legend:
[1] = target: PARP1 - Nuc165 complex (Alexa488-labelled PARP1 bound to a recombinant nucleosome with DNA linker ends of 7 and 11 base pairs) (UniProt P09874); assay: FRET or BRET; Alexa647-HPF1 (0.6-10,000 nM, […] dilutions) titrated into Alexa488-PARP1 premixed with Nuc165 (20 nM) and DMSO (control, no olaparib); binding buffer 50 mM Tris-HCl pH 8.0, 50 mM NaCl, 1 mM MgCl2, 0.1 mM EDTA, 0.01% IGEPAL; 384-well plate
Sequence of PARP1 - Nuc165 complex (Alexa488-labelled PARP1 bound to a recombinant nucleosome with DNA linker ends of 7 and 11 base pairs) (P09874 whole entry, looked up, one chain of several): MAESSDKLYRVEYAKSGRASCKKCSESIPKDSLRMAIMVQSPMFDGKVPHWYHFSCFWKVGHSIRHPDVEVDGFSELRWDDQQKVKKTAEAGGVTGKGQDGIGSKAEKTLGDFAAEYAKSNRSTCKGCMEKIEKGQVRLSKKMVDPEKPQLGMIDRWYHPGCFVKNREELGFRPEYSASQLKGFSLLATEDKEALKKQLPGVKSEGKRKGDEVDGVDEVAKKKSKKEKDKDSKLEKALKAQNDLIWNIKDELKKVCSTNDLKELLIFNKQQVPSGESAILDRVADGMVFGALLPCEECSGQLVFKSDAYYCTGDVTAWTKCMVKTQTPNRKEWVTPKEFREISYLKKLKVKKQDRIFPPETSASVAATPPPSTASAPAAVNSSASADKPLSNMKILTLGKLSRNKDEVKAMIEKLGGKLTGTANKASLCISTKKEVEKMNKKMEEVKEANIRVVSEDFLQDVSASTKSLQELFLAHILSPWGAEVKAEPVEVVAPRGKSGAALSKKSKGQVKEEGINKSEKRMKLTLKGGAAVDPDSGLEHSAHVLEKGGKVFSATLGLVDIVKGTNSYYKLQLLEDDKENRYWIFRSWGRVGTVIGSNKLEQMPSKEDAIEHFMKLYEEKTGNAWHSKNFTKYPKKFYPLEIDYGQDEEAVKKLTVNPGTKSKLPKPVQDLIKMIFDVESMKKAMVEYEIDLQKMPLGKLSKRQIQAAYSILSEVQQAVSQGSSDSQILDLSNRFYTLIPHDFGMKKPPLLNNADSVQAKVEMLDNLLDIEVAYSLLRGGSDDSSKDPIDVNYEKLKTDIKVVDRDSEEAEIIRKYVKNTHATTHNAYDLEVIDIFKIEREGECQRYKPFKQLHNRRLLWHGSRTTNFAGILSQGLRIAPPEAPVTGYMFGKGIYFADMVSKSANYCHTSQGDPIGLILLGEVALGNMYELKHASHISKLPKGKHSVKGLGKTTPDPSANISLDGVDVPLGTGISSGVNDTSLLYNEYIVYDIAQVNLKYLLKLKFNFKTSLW

[2] = target: PARP1 - Nuc165 complex (Alexa488-labelled PARP1 bound to a recombinant nucleosome with DNA linker ends of 7 and 11 base pairs) (UniProt P09874); assay: FRET or BRET; as a1 but with olaparib (1 uM): Alexa647-HPF1 titrated into Alexa488-PARP1 premixed with Nuc165 (20 nM) and olaparib; binding buffer

B1: Histone PARylation factor 1 (HPF1), labelled with Alexa647 (natural protein)
chain: LRKEVENHYKLSLPEDFYHFWKFCEELDPEKPSDSLSASLGLQLVGPYDILAGKHKTKKKSTGLNFNLHWRFYYDPPEFQTIIIGDNKTQYHMGYFRDSPDEFPVYVGINEAKKNCIIVPNGDNVFAAVKLFLTKKLREITDKKKINLLKNIDEKLTEAARELGYSLEQRTVKMKQRDKKVVTKTFHGAGLVVPVDKNDVGYRELPETDADLKRICKTIVEAASDEERLKAFAPIQEMMTFVQFANDECDYGMGLELGMDLFCYGSHYFHKVAGQLLPLAYNLLKRNLFAEIIEEHLANRSQENIDQLAA
modifications: Alexa647 C2 maleimide label (extent of labeling typically 50-100%)
Kd [1]: 790 nM
Kd [2]: 229 nM
